B1: Pseudomonas aeruginosa aspartate transcarbamoylase catalytic chain (enzyme, Pseudomonas aeruginosa (strain PAO1), UniProt Q59653 1-334, looked up)
chain: MPTDAKRPLQLNDQGQLRHFISLDGLPRELLTEILDTADSFLEVGARAVKKVPLLRGKTVCNVFFENSTRTRTTFELAAQRLSADVISLNVSTSSTSKGETLTDTLRNLEAMAADMFVVRHSDSGAAHFIAEHVSPNVAVINGGDGRHAHPTQGMLDMLTIRRHKGNFEQLSVAIVGDILHSRVARSNMLALKTLGCPDIRVIAPRTLLPIGLEEQYGVRVFTNADEGLKDVDVVIMLRLQRERMQGGLLPSEGEFFKLYGLTEKRLKLAKPDAIVMHPGPINRGVEIESAVADGAQSVILNQVTYGIAIRMAVLSMAMSGQNTQRQLEQEDAE
notes: Aspartate transcarbamoylase (ATCase) catalytic chain of Pseudomonas aeruginosa strain PAO1, gene pyrB; about 36-37 kDa; The pyrB gene was amplified by PCR and put into pETite; Removal of the His tag is not mentioned; also called ATCase; ATCase subunit
B2: Pseudomonas aeruginosa pseudo dihydroorotase (natural protein, Pseudomonas aeruginosa (strain PAO1), UniProt Q51551 1-423, looked up)
chain: MTISIRGARVIDPASDLDQVGDLHIEAGKIVAIGAAPAGFSAQKTLDGAGLVAAPGLVDLSVALREPGYGRKGNVESETRAAAAGGTTSLCCPPYTRPVLDTPAVAELILDRAREAGNAKVYPIGALTRGFGGEQLSELVALRDTGCVAFTNGLHGFASNRILRRALEYAATFDLTVIFTSQDTDLAEGGLAHEGPTASFLGLAGIPETAETVALARNLLLVEQSGVRAHFSQLTSARGIELVAQAQARGLPVTCDVALYQLILTDEALVGFSSLYHVQPPLRTRADREALREAVKNGVVQAIASHHQPHEADAKNAPFAATEPGISGAELLLPLAMTLVQDGLLDLPTLLARLSHGPAQALRLPAGRLAVGQAADLVLFDPQGSTLAGESWYSKGQNSPFVGHCLPGRVRYTLVDGHLTHEG
notes: Dimer by size exclusion chromatography; also called pDHO; pseudo-DHO; source: also co-transformed and co-purified with mutant ATCases

Tests used:
[1] = biological target: T1, P. aeruginosa ATCase-pDHO complex (Pseudomonas aeruginosa, UniProt Q59653); experiment: colorimetric ATCase assay, carbamoyl phosphate saturation curves; assay type: biochemical; settings: 8 mM aspartate, 37°C; PALA 0-500 nM; bisubstrate inhibitor
T1 construct: gene pyrB; both full-length subunits with N-terminal 6xHis tag (pETite), E. coli BL21(DE3), Ni-purified, mixed 1:1; 37 kDa + 45 kDa, 457 kDa dodecamer; with Dihydroorotase-like protein
T1 sequence (Q59653 1-334): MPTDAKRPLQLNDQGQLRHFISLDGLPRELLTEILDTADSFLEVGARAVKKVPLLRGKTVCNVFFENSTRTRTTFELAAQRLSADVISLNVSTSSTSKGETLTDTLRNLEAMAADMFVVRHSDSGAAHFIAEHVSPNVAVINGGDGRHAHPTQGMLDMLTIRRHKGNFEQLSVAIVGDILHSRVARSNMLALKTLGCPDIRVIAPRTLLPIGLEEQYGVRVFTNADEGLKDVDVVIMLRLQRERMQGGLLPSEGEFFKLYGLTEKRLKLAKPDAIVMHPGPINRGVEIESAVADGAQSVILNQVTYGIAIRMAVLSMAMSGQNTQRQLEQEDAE
T1 sequence (Q51551 1-423 partner): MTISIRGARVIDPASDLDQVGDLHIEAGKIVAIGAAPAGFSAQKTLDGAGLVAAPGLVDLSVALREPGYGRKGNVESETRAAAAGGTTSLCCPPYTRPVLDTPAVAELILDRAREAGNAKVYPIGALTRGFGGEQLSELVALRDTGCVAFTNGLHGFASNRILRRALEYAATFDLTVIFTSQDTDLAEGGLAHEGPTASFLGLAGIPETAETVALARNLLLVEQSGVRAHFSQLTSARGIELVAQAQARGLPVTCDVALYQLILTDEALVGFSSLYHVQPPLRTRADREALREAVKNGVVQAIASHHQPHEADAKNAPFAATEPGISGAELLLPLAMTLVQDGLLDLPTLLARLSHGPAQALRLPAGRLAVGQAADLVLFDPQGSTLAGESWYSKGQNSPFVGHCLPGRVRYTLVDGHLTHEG

[2] = substrate: NC(=O)OP(=O)(O)O; experiment: purified protein; assay type: biochemical, Pseudomonas aeruginosa; settings: 8 mM aspartate, 50 mM Tris/acetate pH 8.3, 37°C, Hill fit, text b47 prints 2.5 mM, Table 3 (0 ATP series) 0.88 ± 0.03 mM
[3] = substrate: N[C@@H](CC(=O)O)C(=O)O; experiment: purified protein; assay type: biochemical, Pseudomonas aeruginosa; settings: 10 mM carbamoyl phosphate, 50 mM Tris/acetate pH 8.3, 37°C, Hill fit
[4] = biological target: B2; experiment: SEC; complex reconstituted by mixing equimolar amounts of ATCase and pDHO; Superdex S-200, 50 mM Tris-HCl pH 7.5, 200 mM NaCl; fractions on SDS-PAGE; settings: both partners purified
[5] = biological target: B1; experiment: cell-based or functional assay
[6] = biological target: the molecule itself; experiment: SEC; each Ni2+ column purified protein applied alone; Superdex S-200, 50 mM Tris-HCl pH 7.5, 200 mM NaCl; 2-mL sample of 5-10 mg/ml; calibrated column

Molecule: O=C(O)C[C@H](NC(=O)CP(=O)(O)O)C(=O)O [N-phosphonacetyl-L-aspartate]
- colorimetric ATCase assay, carbamoyl phosphate saturation curves [1]: N-phosphonacetyl-L-aspartate is also a potent inhibitor of the of the P. aeruginosa enzyme

Molecule: B1
- K0.5 [2]: 2.8 ± 0.18 mM
- Vmax [2]: 142 µmol/min/mg
- kcat [2]: 87.6 s⁻¹
- kcat/Km [2]: 31000 M⁻¹ s⁻¹
- K0.5 [3]: 3.6 ± 0.41 mM
- Vmax [3]: 183 µmol/min/mg
- kcat [3]: 113 s⁻¹
- kcat/Km [3]: 31000 M⁻¹ s⁻¹
- binding result [4]: binds

Molecule: B2
- ATCase activity of a fixed amount of ATCase (4 ug) titrated with pDHO (0-24.3 ug); molar ratio of ATCase to pDHO at which the activity levels off [5]: 0.97 mol pDHO per mol ATCase
- stoichiometry N [6]: 2

From article PMC7053772, “Characterization and assembly of the Pseudomonas aeruginosa aspartate transcarbamoylase-pseudo dihydroorotase complex” (PLoS ONE, 2020)
